B1: EEHEE_rd4_0363 (parent)
chain: VTVDIKGMEYHFDNPEEAKKFAERMAKELGGELKVENGTLKVE

Variants of: B1
Assay: folding stability dG (cDNA display proteolysis); higher = more stable
Conditions: PBS, room temperature

Variant	folding stability dG [kcal/mol]
VTVDIKGMEYHFDNPEEAKKFAERMAKELGGELKVENGVLKVE [T39V]	2.77
VTVDIKGMEYHFDNPEEAKKFAERMAKELGGELKVENGRLKVE [T39R]	2.17
VTVDIKGMEYHFDNQEEAKKFAERMAKELGGELKVENGTLKVE [P15Q]	1.75
VTVDIKGMEYHFDNWEEAKKFAERMAKELGGELKVENGTLKVE [P15W]	3.73
VTVDIKGMEYHFDNLEEAKKFAERMAKELGGELKVENGTLKVE [P15L]	2.6
VTVDIKGMEYHFDNPEEGKKFAERMAKELGGELKVENGTLKVE [A18G]	1.46
VTVDIKGMEYHFDNPEEMKKFAERMAKELGGELKVENGTLKVE [A18M]	0.379
VTVDIKGLEYHFDNPEEAKKFAERMAKELGGELKVENGTLKVE [M8L]	1.93
VTVDIIGMEYHFDNPEEAKKFAERMAKELGGELKVENGTLKVE [K6I]	1.81
VTVDIKGMEYHFDNPEEAKKFAERMALELGGELKVENGTLKVE [K27L]	2.35
VTVDIKGMEYHFDNPEEAKKFAERMAEELGGELKVENGTLKVE [K27E]	1.77
VTVDIKGMEYHFDNPEEAKKFAERMAVELGGELKVENGTLKVE [K27V]	1.82
VTVDIKGMEYHFDNPEEAKKFAERMAKELGAELKVENGTLKVE [G31A]	2.15
VTVDIKGMEYHFDNPEEAKKFAERMAKELGHELKVENGTLKVE [G31H]	1.27
VTVDIKGMEYHFDNPEEAKKFAERMAKELGQELKVENGTLKVE [G31Q]	1.32
VTVDIKGMEYHFDNPEEAKKFAERMAKELGKELKVENGTLKVE [G31K]	0.977
VTVDIKGMEYHFDNPEEAKKFAERMAKELGFELKVENGTLKVE [G31F]	2.03
VTVDIKGMEYHFDNPEEAKKFAERMAKELGTELKVENGTLKVE [G31T]	1.38
VTVDIKGMEYHFDFPEEAKKFAERMAKELGGELKVENGTLKVE [N14F]	0.914
VTVDIKGMEYHFDIPEEAKKFAERMAKELGGELKVENGTLKVE [N14I]	0.929
VTVDIKGMEYHFDQPEEAKKFAERMAKELGGELKVENGTLKVE [N14Q]	0.996
VTVDIKGMEYHFDMPEEAKKFAERMAKELGGELKVENGTLKVE [N14M]	0.77
VTVDLKGMEYHFDNPEEAKKFAERMAKELGGELKVENGTLKVE [I5L]	1.23
VTDDIKGMEYHFDNPEEAKKFAERMAKELGGELKVENGTLKVE [V3D]	-0.088

Variant	folding stability dG [kcal/mol]
VTNDIKGMEYHFDNPEEAKKFAERMAKELGGELKVENGTLKVE [V3N]	-0.005
VTYDIKGMEYHFDNPEEAKKFAERMAKELGGELKVENGTLKVE [V3Y]	0.332
VTVDIKGMEYHFDNPEEAKKFAERMAKELGGELKVENSTLKVE [G38S]	1.19
VTVDIKGMEYHFDNPEEAKKFAERMAKELGGELKVENGTNKVE [L40N]	0.85
VTVDIKGMEYHFDNPEEAKKFAERMAKELGGELKVENGTGKVE [L40G]	0.861
VTVDIKGMEYHFDNPEEAKKFAERMAKELGGELKVENGTPKVE [L40P]	0.807
VTVDIKGMEYHFMNPEEAKKFAERMAKELGGELKVENGTLKVE [D13M]	1.68
VTVDIKGMEYHFKNPEEAKKFAERMAKELGGELKVENGTLKVE [D13K]	1.82
VTVDIKGMEYHFYNPEEAKKFAERMAKELGGELKVENGTLKVE [D13Y]	1.22
VTVDIKGMEYHFDNPEEAKKFAERMAKELGGPLKVENGTLKVE [E32P]	0.989
VTVDIKGMEYHFDNPEEAKKFAERMAKELGGRLKVENGTLKVE [E32R]	2.23
VTVDIKGMEYHFDNPEEAKKFAERMAKELGGHLKVENGTLKVE [E32H]	2.45
VTVDIKGMEYHMDNPEEAKKFAERMAKELGGELKVENGTLKVE [F12M]	0.11
VTVDIKGMEYHCDNPEEAKKFAERMAKELGGELKVENGTLKVE [F12C]	1.66
VTVDIKGMEYHHDNPEEAKKFAERMAKELGGELKVENGTLKVE [F12H]	-0.13
VTVDIKGMEYHFDNPEEAKKFAERMAKELGGELKVANGTLKVE [E36A]	1.74
VTVDIKGMEYHFDNPEEAKKFAERMAKELGGELKVKNGTLKVE [E36K]	1.4
VTVDIKGMEYHFDNPEEAKKFAERMAKELGGELKVRNGTLKVE [E36R]	1.45
VTVDIKGMEYHFDNPEEAKKFAERMAKELGGEQKVENGTLKVE [L33Q]	0.872
VTVDIKGMEYHFDNPEEAKKFAERMAKELGGEIKVENGTLKVE [L33I]	2.48
VTVDIKGMEYHFDNPEEAKKFAERMAKELGGEDKVENGTLKVE [L33D]	0.762
VTVDIKGMEYHFDNPEEAKKFAERMAKELGGENKVENGTLKVE [L33N]	0.799
VTVDIKGMEYHFDNPEEAKKFAERMIKELGGELKVENGTLKVE [A26I]	1.6
VTVDIKGMEYHFDNPEEAKKFAERMQKELGGELKVENGTLKVE [A26Q]	1.3

Variant	folding stability dG [kcal/mol]
VTVDIKGMEYHFDNPEEAKKFAERMVKELGGELKVENGTLKVE [A26V]	1.66
VTVDIKGMEYHFDNPEEAKKFAERMMKELGGELKVENGTLKVE [A26M]	1.55
VTVDIKGMEYHFDNPEEAYKFAERMAKELGGELKVENGTLKVE [K19Y]	2.87
VTVDIKGMEYHFDNPEEASKFAERMAKELGGELKVENGTLKVE [K19S]	1.35
VTVDIKGMEYHFDNPEEADKFAERMAKELGGELKVENGTLKVE [K19D]	0.524
VTVDIKGMEYHFDNPEEAQKFAERMAKELGGELKVENGTLKVE [K19Q]	2.17
VTVDIKGMEYHFDNPEEAKKFAERMAKELDGELKVENGTLKVE [G30D]	1.52
VTVDIKGMEYHFDNPEEAKKFAERMAKELQGELKVENGTLKVE [G30Q]	1.57
VTVDIKGMEYHFDNPEEAKKFAERMAKELLGELKVENGTLKVE [G30L]	1.34
ETVDIKGMEYHFDNPEEAKKFAERMAKELGGELKVENGTLKVE [V1E]	0.523
STVDIKGMEYHFDNPEEAKKFAERMAKELGGELKVENGTLKVE [V1S]	1.45
VTVDIKGMEYHFDNPEEAKKFAERMAKELGGELKVENGTLRVE [K41R]	2.17
VTVDIKGMEYHFDNPEEAKKFAERMAKELGGELKVENGTLIVE [K41I]	2.1
VTVDIKGMEYHFDNPEEAKKFAERMAKELGGELKVENGTLFVE [K41F]	2
VTVDIKGMEYHFDNPEEAKKFAERMAKELGGELKVENGTLGVE [K41G]	1.01
VTVDIKGMEYHFDNPEEAKKFAERMAKELGGELKVENGTLHVE [K41H]	1.61
VTVDIKGMEYHFDNPEEAKKFAERMAKELGGELKVENGTLKVR [E43R]	2.04
VTVDIKGMEYHFDNPEEAKKFAERMAKELGGELKVENGTLKVM [E43M]	2.49
VTVDIKGMEYHFDNPEEAKKFAERMAKELGGELKVENGTLKVK [E43K]	1.89
VTVDIKGMEYHFDNPEEAKKFAERMAKELGGELKVENGTLKVT [E43T]	2.38
VTVDIKGMEYHFDNPEEAKKFAERMAKELGGELKVENGTLKVC [E43C]	2.81
VTVAIKGMEYHFDNPEEAKKFAERMAKELGGELKVENGTLKVE [D4A]	2.45
VTVRIKGMEYHFDNPEEAKKFAERMAKELGGELKVENGTLKVE [D4R]	2.75
VTVDIKGMEYHFDNPEEAKKFAERMAKELGGELKVEVGTLKVE [N37V]	1.14

Variant	folding stability dG [kcal/mol]
VTVDIKGMEYHFDNPEEAKKFAERMAKELGGELKVERGTLKVE [N37R]	1.14
VTVDIKGMEYHFDNPEEAKKFAERMAKELGGELKVEAGTLKVE [N37A]	1.4
VTVDIKGMEYHFDNPETAKKFAERMAKELGGELKVENGTLKVE [E17T]	1.23
VTVDIKGMEYHFDNPERAKKFAERMAKELGGELKVENGTLKVE [E17R]	0.908
VTVDIKGMKYHFDNPEEAKKFAERMAKELGGELKVENGTLKVE [E9K]	3.05
VTVDIKGMTYHFDNPEEAKKFAERMAKELGGELKVENGTLKVE [E9T]	2.55
VTVDIKGMRYHFDNPEEAKKFAERMAKELGGELKVENGTLKVE [E9R]	2.9
VTVDIKGMVYHFDNPEEAKKFAERMAKELGGELKVENGTLKVE [E9V]	2.93
VTVDIKGMEYHFDNPEEAKKFAERMAKEIGGELKVENGTLKVE [L29I]	1.57
VTVDIKGMEYHFDNPEEAKKFTERMAKELGGELKVENGTLKVE [A22T]	0.578
VTVDIKGMEYHFDNPEEAKKFGERMAKELGGELKVENGTLKVE [A22G]	0.968
VTVDIKGMEYHFDNPEEAKKFWERMAKELGGELKVENGTLKVE [A22W]	1.53
VTVDIKGMEYHFDNPEEAKKFATRMAKELGGELKVENGTLKVE [E23T]	1.31
VTVDIKGMEYHFDNPEEAKKFAMRMAKELGGELKVENGTLKVE [E23M]	1.9
VTVDIKGMEYHFDNPEEAKKFAERMAKELGGELKVENGTLKHE [V42H]	0.832
VTVDIKGMEYHFDNPEEAKKFAERMAKELGGELKVENGTLKYE [V42Y]	0.816
VTVDIKGMEYHFDNPEEAKKFAEHMAKELGGELKVENGTLKVE [R24H]	1.94
VTVDIKGMEYHFDNPEEAKKFAEAMAKELGGELKVENGTLKVE [R24A]	2.11
VKVDIKGMEYHFDNPEEAKKFAERMAKELGGELKVENGTLKVE [T2K]	1.95
VYVDIKGMEYHFDNPEEAKKFAERMAKELGGELKVENGTLKVE [T2Y]	1.52
VIVDIKGMEYHFDNPEEAKKFAERMAKELGGELKVENGTLKVE [T2I]	2.37
VTVDIKGMEYHFDNPEEAKKFAERMAKELGGELKTENGTLKVE [V35T]	1.72
VTVDIKGMEYHFDNPEEAKKFAERMAKELGGELKEENGTLKVE [V35E]	1.96
VTVDIKGMEYHFDNPEEAKKFAERMAKELGGELKHENGTLKVE [V35H]	1.57

Variant	folding stability dG [kcal/mol]
VTVDIKGMEYHFDNPEEAKKFAERMAKELGGELKPENGTLKVE [V35P]	0.972
VTVDIKGMEYHFDNPEEAKKFAERMAKELGGELKGENGTLKVE [V35G]	1.2
VTVDIKGMEYHFDNPEEAKKFAERMAKRLGGELKVENGTLKVE [E28R]	1.81
VTVDIKGMEYHFDNPEEAKKFAERMAKELGGELHVENGTLKVE [K34H]	1.82
VTVDIKGMEYHFDNPEEAKKFAERMAKELGGELDVENGTLKVE [K34D]	1.01
VTVDIKGMEYHFDNPEEAKKFAERMAKELGGELRVENGTLKVE [K34R]	2.21
VTVDIKGMEYHFDNPEEAKKFAERMAKELGGELYVENGTLKVE [K34Y]	1.98
VTVDIKGMEYHFDNPEEAKKMAERMAKELGGELKVENGTLKVE [F21M]	-0.083
VTVDIKGMEYHFDNPHEAKKFAERMAKELGGELKVENGTLKVE [E16H]	1.63
VTVDIKGMEYHFDNPGEAKKFAERMAKELGGELKVENGTLKVE [E16G]	1.24
VTVDIKGMEKHFDNPEEAKKFAERMAKELGGELKVENGTLKVE [Y10K]	0.191
VTVDIKGMEGHFDNPEEAKKFAERMAKELGGELKVENGTLKVE [Y10G]	-0.912
VTVDIKGMEYVFDNPEEAKKFAERMAKELGGELKVENGTLKVE [H11V]	1.84
VTVDIKGMEYMFDNPEEAKKFAERMAKELGGELKVENGTLKVE [H11M]	1.54
VTVDIKGMEYTFDNPEEAKKFAERMAKELGGELKVENGTLKVE [H11T]	1.77
VTVDIKGMEYRFDNPEEAKKFAERMAKELGGELKVENGTLKVE [H11R]	1.87
VTVDIKGMEYKFDNPEEAKKFAERMAKELGGELKVENGTLKVE [H11K]	1.73
VTVDIKGMEYHFDNPEEAKKFAERLAKELGGELKVENGTLKVE [M25L]	1.45
VTVDIKGMEYHFDNPEEAKKFAERFAKELGGELKVENGTLKVE [M25F]	1.08
VTVDIKHMEYHFDNPEEAKKFAERMAKELGGELKVENGTLKVE [G7H]	0.716
VTVDIKEMEYHFDNPEEAKKFAERMAKELGGELKVENGTLKVE [G7E]	0.306
VTVDIKFMEYHFDNPEEAKKFAERMAKELGGELKVENGTLKVE [G7F]	0.855

Reference: the MegaScale stability set (Tsuboyama et al. 2023)
